Measurements as given in article PMC11220742.

Columns and labels:
[1] = target: HLA-A*2601 H chain (extracellular domain) refolded with human β2-microglobulin; assay: in vitro refolding, gel filtration; settings: parent: est. 300; read off a plot
[2] = target: HLA-A*0101 H chain (extracellular domain) refolded with human β2-microglobulin; assay: in vitro refolding, gel filtration; settings: parent: est. 230; read off a plot

## EVF peptide (SARS-CoV-2 S 340–351) E1A
[1]
  response: 290 mAU

## EVF peptide (SARS-CoV-2 S 340–351) E1R
[1]
  response: 100 mAU

## EVF peptide (SARS-CoV-2 S 340–351) F3D
[2]
  response: 330 mAU
